Data on seven molecules can be found in paper PMC10267556 (Nature Communications, 2023).

The chains are these.
B1: TH272 (antibody, V domains shown)
VH: QITLKESGPTLVKPTQTLTLTCTFSGFSLSTGGVSVGWIRQPPGKALEWLALIYWDDDKRYSPSLESRLTITKDTSKNLVVLTLTNMDPVDTATYYCAHKTIPTIFDYWGQGTLVTVSS
VL: QSALTQPASVSGSPGQSITISCTATSSDVGAYQYVSWYQQYPGKAPKLMIYEVSKRPSGVSNRFSGSKSGNTASLTISGLQAEDDAYYYCNSYTTSSVVFGGGTKLTVL
notes: IgG1 (D2:p3)
B2: TH003 (antibody, V domains shown)
VH: EVRLLESGGGLVQPGGSLRLSCAASGFTFNDYAMSWVRQAPGEGLEWVSTISYSGGSTYYADSVKGRFTISRDNSKNMLYLQMNSLRAEDTALYYCANGVATADWYFDLWGRGTLVTVSS
VL: QSALTQPRSVSGSPGQSVTISCTGTSSDVGGYNYVSWFQHHPGKAPKLMIYDVTDRPSGVPDRFSGSKSGNTASLTISGLQAEDAADYYCCSYAGTYTVFGGGTKLTVL
notes: IgG1 (D2:p3)
B3: TH027 (antibody, V domains shown)
VH: QITLKESGLTLVRPTQTLTLTCTFSGFSLINSGVGVGWIRQPPGKALEWLALIYWDDDKRYNPSLRSRLTISKATSKNQVVLTMTNMDPVDTATYYCTHRGPGHNTPIYFEFWGQGALVTVSS
VL: QSVLTQSPSASGTPGQRVTISCSGSRSNIGSNFVYWFHQLPGTAPKLLIHSNDQRPSGVPDRFSGSNSGTSASLAISGLRSEDEADYYCAAWDDSLSSWVFGGGTKLTVL
notes: IgG1 (D2:p3)
B4: TH132 (antibody, V domains shown)
VH: EVQLVESGGGLVQPGGSLRLSCAASGITVSRNYMSWVRQAPGKGLEWVSVMFAGGSTFYADSVKGRFTISRDNSKNTLYLQMNSLRAEDTAVYYCARDLGVVGATDYWGQGTLVTVSS
VL: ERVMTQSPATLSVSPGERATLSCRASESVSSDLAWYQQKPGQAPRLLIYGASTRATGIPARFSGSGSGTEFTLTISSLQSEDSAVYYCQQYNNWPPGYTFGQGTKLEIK
notes: IgG1 (D2:p3)
B5: TH281 (antibody, V domains shown)
VH: B4 VH with G26E
VL: not shown
notes: IgG1 (D2:p3)
B6: TH236 (antibody, V domains shown)
VH: QVQLVESGGGLVKPGGSLRLSCAASGFMISDSYMNWIRQPPGKGLEWVSYISSNGYAIYYGDSVKGRFTISRDNAKNFLYLQMNSLRVEDTAVYYCAREQPGGYYDSSGYRLDPWGQGILVTVSS
VL: QSALTQPASVSGSPGQSITISCTGTSSDVGGYNYVSWYQQHPGKAPKLMIYDVSNRPSGVSNRFSGSKSGNTASLTISGLQAEDEADYYCSSYTSSSTLYVFGTGTKVTVL
notes: IgG1 (D2:p3)
B7: TH132 monoclonal antibody (IgG) (antibody, V domains shown)
VH: B4 VH
VL: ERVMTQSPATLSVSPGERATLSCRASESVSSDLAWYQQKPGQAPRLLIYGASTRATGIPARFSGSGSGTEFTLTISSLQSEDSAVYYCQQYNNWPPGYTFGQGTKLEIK
notes: copies: 2 + 2

Substitutions are numbered along the chain they refer to.

One assay has as its target T1, RBD (BA.1) (SARS-CoV-2 Omicron BA.1, strain).
T1 construct: source: bought: Sino Biological
Description: SPR. As to conditions: both partners purified.
The Kd is the equilibrium constant for the complex coming apart. Low readings indicate tighter binding, high ones weaker binding. B1: the affinity, expressed as Kd, was 0.296 nM.
The same measure, in the same setting: in the case of B2 it was 1.29 nM; in that of B3, 0.838 nM.
Turning to B4, binding was characterised by a dissociation constant (Kd) of 0.726 nM.
B5 registered a Kd of 0.119 nM.
Still for that read-out and setting: in the case of B6 it was 0.3 nM.

The target in the next assay is T2, Spike (XBB.1.5) (SARS-CoV-2, Omicron XBB.1.5, strain).
T2 construct: source: bought: Sino Biological
Nature of the assay: SPR. As to conditions: both partners purified.
With B4, binding was put at a Kd of 1.09 nM.

For another assay, the target named is T3, RBD (BA.4/5) (SARS-CoV-2, Omicron BA.4/5, strain).
T3 construct: source: bought: Sino Biological
Nature of the assay: SPR. Particulars: both partners purified.
Molecule B1 registered a Kd of 0.045 nM.
B2 yielded a Kd of 0.484 nM.
Same read-out and setting: in the case of B3 it was 0.752 nM.
The molecule B4 gave a Kd of 0.484 nM.
Turning to B5, the Kd worked out at 0.00781 nM.
Still for that read-out and setting: in the case of B6 it was 0.621 nM.

For the next assay, the target named is T4, Spike (BA.4/5) (SARS-CoV-2, Omicron BA.4/5, strain).
T4 construct: source: bought: Sino Biological
Nature of the assay: SPR. As to conditions: both partners purified.
Turning to B1, the Kd stood at 0.000976 nM.
Molecule B2 yielded a Kd of 1.59 nM.
For B3, the affinity, expressed as Kd, was 1.86 nM.
B4 showed a Kd of 0.00171 nM.
Take B6: the affinity, expressed as Kd, was 0.602 nM.

The target in a further assay is T5, Spike (XBB) (SARS-CoV-2, Omicron XBB, strain).
T5 construct: source: bought: Sino Biological
Description: SPR. As to conditions: both partners purified.
Take B4: the equilibrium dissociation constant (Kd) came out at 1.34 nM.

The target in another assay is T6, Spike (BA.1) (SARS-CoV-2, Omicron BA.1, strain).
T6 construct: source: bought: Sino Biological
Description: SPR. Particulars: both partners purified.
With B1, the Kd was 1.33 nM.
Same read-out and setting: in the case of B2 it was 2.55 nM.
Turning to B3, the Kd is 7.06 nM.
The same measure, in the same setting: in the case of B4 it was 1.26 nM; in that of B5, 0.517 nM; in that of B6, 0.0867 nM.

The next assay has as its target SARS-CoV-2 Omicron XBB spike protein (SARS-CoV-2 Omicron XBB, strain). Nature of the assay: SPR. Particulars: both partners purified.
In the case of B7, the Kd was roughly 1 nM.

A further assay concerns the target SARS-CoV-2 Omicron XBB.1.5 spike protein (SARS-CoV-2 Omicron XBB.1.5, strain). Nature of the assay: SPR. Particulars: both partners purified.
For the molecule B7, the Kd is roughly 1 nM.
